What was measured:
[1] = biological target: S1-STMND1 (human STMND1 lacking the first seven amino acids, amino acids 8-276), His6-tagged (human) (UniProt H3BQB6); assay: BLI
[2] = biological target: STMND1-SLD (stathmin-like domain of human STMND1, amino acids 118-276), His6-tagged (human) (UniProt H3BQB6); assay: BLI

Substance: Bovine brain tubulin (αβ-tubulin heterodimer) (from UniProt Q6B856 1-445) (complex)
- Kd [1]: 400 nM
- Kd [2]: 600 nM

— PMC11238091
